Assay results: PMC11289878

Target: B-isoform of human insulin receptor (hIR-B) (human) (UniProt P06213)
UniProt P06213, sequence (P06213 28-1382): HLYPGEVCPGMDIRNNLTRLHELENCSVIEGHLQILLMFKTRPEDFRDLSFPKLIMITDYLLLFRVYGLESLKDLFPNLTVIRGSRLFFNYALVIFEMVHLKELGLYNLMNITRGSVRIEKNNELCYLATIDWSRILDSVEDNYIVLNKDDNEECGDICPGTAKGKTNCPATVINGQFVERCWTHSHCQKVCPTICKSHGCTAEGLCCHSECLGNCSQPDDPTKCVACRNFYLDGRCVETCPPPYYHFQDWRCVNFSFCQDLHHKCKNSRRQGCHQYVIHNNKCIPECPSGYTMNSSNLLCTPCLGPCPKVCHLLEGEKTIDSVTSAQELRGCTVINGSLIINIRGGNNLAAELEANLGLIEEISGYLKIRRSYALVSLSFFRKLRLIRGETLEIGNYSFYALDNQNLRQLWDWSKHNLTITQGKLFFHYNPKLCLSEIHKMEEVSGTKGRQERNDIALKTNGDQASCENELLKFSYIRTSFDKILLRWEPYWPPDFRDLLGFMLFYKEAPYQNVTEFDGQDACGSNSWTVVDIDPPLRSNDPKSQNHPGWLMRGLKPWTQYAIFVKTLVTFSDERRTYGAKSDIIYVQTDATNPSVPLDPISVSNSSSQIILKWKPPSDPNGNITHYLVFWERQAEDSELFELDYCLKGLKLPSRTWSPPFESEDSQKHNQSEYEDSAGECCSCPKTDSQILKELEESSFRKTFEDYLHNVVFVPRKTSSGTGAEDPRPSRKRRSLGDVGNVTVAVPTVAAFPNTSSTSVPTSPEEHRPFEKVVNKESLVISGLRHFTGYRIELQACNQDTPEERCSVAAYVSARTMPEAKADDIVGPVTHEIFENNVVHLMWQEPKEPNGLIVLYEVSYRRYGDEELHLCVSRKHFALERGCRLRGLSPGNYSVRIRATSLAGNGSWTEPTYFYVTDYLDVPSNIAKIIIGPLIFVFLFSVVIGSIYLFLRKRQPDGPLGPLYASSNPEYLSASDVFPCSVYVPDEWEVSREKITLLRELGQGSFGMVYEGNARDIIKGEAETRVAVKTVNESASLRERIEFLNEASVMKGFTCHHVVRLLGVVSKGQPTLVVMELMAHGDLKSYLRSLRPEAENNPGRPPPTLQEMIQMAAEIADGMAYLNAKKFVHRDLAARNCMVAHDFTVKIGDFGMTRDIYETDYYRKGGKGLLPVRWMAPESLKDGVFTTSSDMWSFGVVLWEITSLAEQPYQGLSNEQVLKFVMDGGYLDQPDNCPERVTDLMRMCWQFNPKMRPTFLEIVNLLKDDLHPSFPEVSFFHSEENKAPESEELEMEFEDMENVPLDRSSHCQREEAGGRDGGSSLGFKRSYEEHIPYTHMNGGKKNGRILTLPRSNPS

- EC50 (nM) of insulin receptor Y1158 phosphorylation, HEK293 cells overexpressing hIR-B, 0% HSA: 50 nM
- EC50 (nM) of insulin receptor Y1158 phosphorylation, HEK293 cells overexpressing hIR-B, 1% HSA: 83 nM
- Rel. potency (%) to human insulin standard in the same assay, insulin receptor Y1158 phosphorylation, 0% HSA: 1.4%
- Rel. potency (%) to human insulin standard in the same assay, insulin receptor Y1158 phosphorylation, 1% HSA: 1.5%
Substance: LY3209590 (Fc fusion)
